The values that follow come from US20240400654A1.

The target in this assay is HRgpA-6H (Porphyromonas gingivalis) (UniProt P28784). Kind of assay: ELISA, coated HRgpA-6H. (In an ELISA, binding on a coated surface is turned into a signal by an enzyme label.)

Positions count from the first letter of the chain named. Names and notes keep the numbering of the source. Values joined by “and” are separate entries in the source; they are usually repeats but may differ in a detail not shown here. Identical values can stand only once.

Sequence of UniProt P28784 (P28784 228-860 limits assumed): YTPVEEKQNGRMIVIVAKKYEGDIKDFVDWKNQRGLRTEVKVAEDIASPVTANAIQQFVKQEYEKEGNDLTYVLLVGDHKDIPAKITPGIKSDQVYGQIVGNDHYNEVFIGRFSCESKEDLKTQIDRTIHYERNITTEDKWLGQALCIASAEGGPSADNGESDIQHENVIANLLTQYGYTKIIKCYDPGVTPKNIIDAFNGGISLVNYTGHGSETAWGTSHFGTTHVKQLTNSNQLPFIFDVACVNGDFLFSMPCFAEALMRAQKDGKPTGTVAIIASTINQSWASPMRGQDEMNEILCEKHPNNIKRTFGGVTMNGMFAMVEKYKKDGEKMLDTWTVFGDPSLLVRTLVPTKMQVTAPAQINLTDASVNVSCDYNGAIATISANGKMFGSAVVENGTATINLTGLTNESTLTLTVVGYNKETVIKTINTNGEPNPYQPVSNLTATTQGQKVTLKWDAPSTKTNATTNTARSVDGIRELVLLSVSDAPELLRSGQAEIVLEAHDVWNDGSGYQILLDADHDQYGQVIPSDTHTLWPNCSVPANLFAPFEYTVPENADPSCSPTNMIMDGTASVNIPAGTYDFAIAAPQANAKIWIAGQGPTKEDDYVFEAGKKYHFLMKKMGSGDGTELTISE

B1: KB001 mouse Fab VL S31T (Fab, V domains shown)
VH: EVQLKQSGPGLVAPSQSLSITCTVSGFSLSIYSVHWVRQPPGKGLEWLGMIWGGGSSDYNSALKSRLSISKDNSKSQVFLKMNSLQTDDTAMYYCARNGNFYAMDYWGQGTSVTVSS
VL: QIVLTQSPAIMSASLGERVTMTCTASSSVSTSFLHWYQQKPGSSPQLWIYSTSNLASGVPARFSGSGSGTSYSLTISSMEAEDAATYYCHQYHHSPYIYTFGGGTKLEIK
As for B1, the OD450 nm is 0.859 and 0.74 and 0.782; the Ratio OD(Variant)/OD(WT) is 1.02 and 0.876 and 0.925.

B2: KB001 mouse Fab VL T24I (Fab, V domains shown)
VH: B1 VH
VL: B1 VL with T24I, T31S
Turning to B2, the OD450 nm was 0.741 and the Ratio OD(Variant)/OD(WT) is 0.964.

B3: KB001 mouse Fab VL S53Q (Fab, V domains shown)
VH: B1 VH
VL: B1 VL with T31S, S53Q
Regarding B3, the OD450 nm is 0.835 and 0.751 and 0.726; the Ratio OD(Variant)/OD(WT) was 1.06 and 0.954 and 0.922.

B4: KB001 mouse Fab VL H90W (Fab, V domains shown)
VH: B1 VH
VL: B1 VL with T31S, H90W
With B4, the OD450 nm is 0.913 and the Ratio OD(Variant)/OD(WT) is 1.06.

B5: KB001 mouse Fab VL T100M (Fab, V domains shown)
VH: B1 VH
VL: B1 VL with T31S, T100M
With B5, the OD450 nm is 0.589 and the Ratio OD(Variant)/OD(WT) is 1.12.

B6: KB001 mouse Fab VL S57R (Fab, V domains shown)
VH: B1 VH
VL: B1 VL with T31S, S57R
B6: the OD450 nm is 0.845 and 0.849; the Ratio OD(Variant)/OD(WT) turned out to be 1.04.

B7: KB001 mouse Fab VL N54R (Fab, V domains shown)
VH: B1 VH
VL: B1 VL with T31S, N54R
Take B7: the OD450 nm was 0.876 and the Ratio OD(Variant)/OD(WT) stood at 1.12.

B8: KB001 mouse Fab VL S53K (Fab, V domains shown)
VH: B1 VH
VL: B1 VL with T31S, S53K
With B8, the OD450 nm stood at 0.841 and the Ratio OD(Variant)/OD(WT) came to 1.07.

B9: KB001 mouse Fab VL S53H (Fab, V domains shown)
VH: B1 VH
VL: B1 VL with T31S, S53H
For B9, the OD450 nm was 0.827 and 0.777; the Ratio OD(Variant)/OD(WT) was 1.05 and 0.987.

B10: KB001 mouse Fab VL S57P (Fab, V domains shown)
VH: B1 VH
VL: B1 VL with T31S, S57P
For the molecule B10, the OD450 nm worked out at 0.858 and the Ratio OD(Variant)/OD(WT) was 1.05.

B11: KB001 mouse Fab VL S57T (Fab, V domains shown)
VH: B1 VH
VL: B1 VL with T31S, S57T
Take B11: the OD450 nm worked out at 0.843 and the Ratio OD(Variant)/OD(WT) amounted to 1.03.

B12: KB001 mouse Fab VL T100F (Fab, V domains shown)
VH: B1 VH
VL: B1 VL with T31S, T100F
Regarding B12, the OD450 nm stood at 0.552 and the Ratio OD(Variant)/OD(WT) turned out to be 1.05.

B13: KB001 mouse Fab VL S57Q (Fab, V domains shown)
VH: B1 VH
VL: B1 VL with T31S, S57Q
Take B13: the OD450 nm was 0.858 and 0.838; the Ratio OD(Variant)/OD(WT) is 1.05 and 1.03.

B14: KB001 mouse Fab VL T100S (Fab, V domains shown)
VH: B1 VH
VL: B1 VL with T31S, T100S
With B14, the OD450 nm is 0.602 and 0.664 and 0.625; the Ratio OD(Variant)/OD(WT) is 1.15 and 1.27 and 1.19.

B15: KB001 mouse Fab VL T100H (Fab, V domains shown)
VH: B1 VH
VL: B1 VL with T31S, T100H
With B15, the OD450 nm is 0.597 and 0.631; the Ratio OD(Variant)/OD(WT) is 1.14 and 1.21.

B16: KB001 mouse Fab VL T52S (Fab, V domains shown)
VH: B1 VH
VL: B1 VL with T31S, T52S
Regarding B16, the OD450 nm was 0.833 and the Ratio OD(Variant)/OD(WT) was determined as 1.06.

B17: KB001 mouse Fab VL T24L (Fab, V domains shown)
VH: B1 VH
VL: B1 VL with T24L, T31S
B17: the OD450 nm was 0.753 and 0.752 and 0.667; the Ratio OD(Variant)/OD(WT) is 0.979 and 0.978 and 0.867.

B18: KB001 mouse Fab VL T100R (Fab, V domains shown)
VH: B1 VH
VL: B1 VL with T31S, T100R
Turning to B18, the OD450 nm was found to be 0.616 and the Ratio OD(Variant)/OD(WT) turned out to be 1.18.

B19: KB001 mouse Fab VL S57G (Fab, V domains shown)
VH: B1 VH
VL: B1 VL with T31S, S57G
In the case of B19, the OD450 nm was 0.873 and 0.825; the Ratio OD(Variant)/OD(WT) is 1.07 and 1.01.

B20: KB001 mouse Fab VL L55N (Fab, V domains shown)
VH: B1 VH
VL: B1 VL with T31S, L55N
B20: the OD450 nm was 0.816 and 0.815 and 0.777; the Ratio OD(Variant)/OD(WT) was 1.04 (2×) and 0.992.

B21: KB001 mouse Fab VL T100Y (Fab, V domains shown)
VH: B1 VH
VL: B1 VL with T31S, T100Y
As to B21, the OD450 nm stood at 0.546 and the Ratio OD(Variant)/OD(WT) stood at 1.04.

B22: KB001 mouse Fab VL N54S (Fab, V domains shown)
VH: B1 VH
VL: B1 VL with T31S, N54S
With B22, the OD450 nm is 0.835 and 0.732 and 0.776; the Ratio OD(Variant)/OD(WT) was 1.07 and 0.934 and 0.99.

B23: KB001 mouse Fab VL N54Q (Fab, V domains shown)
VH: B1 VH
VL: B1 VL with T31S, N54Q
For B23, the OD450 nm came out at 0.868 and the Ratio OD(Variant)/OD(WT) was determined as 1.11.

B24: KB001 mouse Fab VL T100Q (Fab, V domains shown)
VH: B1 VH
VL: B1 VL with T31S, T100Q
As for B24, the OD450 nm is 0.586 and 0.596 and 0.604; the Ratio OD(Variant)/OD(WT) was 1.12 and 1.14 and 1.15.

B25: KB001 mouse Fab VL T100G (Fab, V domains shown)
VH: B1 VH
VL: B1 VL with T31S, T100G
For B25, the OD450 nm is 0.603 and 0.597; the Ratio OD(Variant)/OD(WT) is 1.15 and 1.14.

B26: KB001 mouse Fab VL L55P (Fab, V domains shown)
VH: B1 VH
VL: B1 VL with T31S, L55P
For the molecule B26, the OD450 nm is 0.827 and 0.764 and 0.724; the Ratio OD(Variant)/OD(WT) was 1.06 and 0.975 and 0.924.

B27: KB001 mouse Fab VL T100E (Fab, V domains shown)
VH: B1 VH
VL: B1 VL with T31S, T100E
Consider B27, for which the OD450 nm is 0.613 and 0.621 and 0.674; the Ratio OD(Variant)/OD(WT) was 1.17 and 1.19 and 1.29.

B28: KB001 mouse Fab VL T52A (Fab, V domains shown)
VH: B1 VH
VL: B1 VL with T31S, T52A
With B28, the Ratio OD(Variant)/OD(WT) is 1.17 and 1.08 (2×) and 0.993.

B29: KB001 mouse Fab VL S51G (Fab, V domains shown)
VH: B1 VH
VL: B1 VL with T31S, S51G
In the case of B29, the OD450 nm was 0.915 and 0.777 and 0.851; the Ratio OD(Variant)/OD(WT) was 1.05 and 0.888 and 0.973.

B30: KB001 mouse Fab VL S57N (Fab, V domains shown)
VH: B1 VH
VL: B1 VL with T31S, S57N
Take B30: the OD450 nm turned out to be 0.857 and the Ratio OD(Variant)/OD(WT) is 1.05.

B31: KB001 mouse Fab VL T24K/R18S (Fab, V domains shown)
VH: B1 VH
VL: B1 VL with R18S, T24K, T31S
In the case of B31, the OD450 nm worked out at 0.761 and the Ratio OD(Variant)/OD(WT) stood at 0.99.

B32: KB001 mouse Fab VL S95Q (Fab, V domains shown)
VH: B1 VH
VL: B1 VL with T31S, S95Q
For B32, the OD450 nm is 0.931 and 0.936 and 0.927; the Ratio OD(Variant)/OD(WT) is 1.01 (2×) and 1.02.

B33: KB001 mouse Fab VL S57E (Fab, V domains shown)
VH: B1 VH
VL: B1 VL with T31S, S57E
For the molecule B33, the OD450 nm is 0.843 and the Ratio OD(Variant)/OD(WT) stood at 1.03.

B34: KB001 mouse Fab VL T100W (Fab, V domains shown)
VH: B1 VH
VL: B1 VL with T31S, T100W
Consider B34, for which the OD450 nm stood at 0.585 and the Ratio OD(Variant)/OD(WT) was 1.12.

B35: KB001 mouse Fab VL Y97E (Fab, V domains shown)
VH: B1 VH
VL: B1 VL with T31S, Y97E
Take B35: the OD450 nm worked out at 0.793 and the Ratio OD(Variant)/OD(WT) is 1.

B36: KB001 mouse Fab VL S53N (Fab, V domains shown)
VH: B1 VH
VL: B1 VL with T31S, S53N
With B36, the OD450 nm was 0.838 and 0.707; the Ratio OD(Variant)/OD(WT) is 1.06 and 0.898.

B37: KB001 mouse Fab VL T100L (Fab, V domains shown)
VH: B1 VH
VL: B1 VL with T31S, T100L
Take B37: the OD450 nm was 0.587 and 0.566; the Ratio OD(Variant)/OD(WT) was 1.12 and 1.08.
